Key:
Syntaxin1 (rat) = Syntaxin1 (rat) (UniProt P32851)
[1] = biological target: Munc13-1 C1-C2B-MUN-C2C domain (rat) (UniProt Q62768)
VAMP2 (mouse) = VAMP2 (mouse) (UniProt P63044)
Chain of UniProt P63044 (P63044 whole entry): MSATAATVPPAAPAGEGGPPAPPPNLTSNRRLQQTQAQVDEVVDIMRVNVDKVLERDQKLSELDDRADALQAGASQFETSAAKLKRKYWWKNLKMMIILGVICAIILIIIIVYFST

Chain of UniProt P32851 (P32851 whole entry, the tested form may be a part): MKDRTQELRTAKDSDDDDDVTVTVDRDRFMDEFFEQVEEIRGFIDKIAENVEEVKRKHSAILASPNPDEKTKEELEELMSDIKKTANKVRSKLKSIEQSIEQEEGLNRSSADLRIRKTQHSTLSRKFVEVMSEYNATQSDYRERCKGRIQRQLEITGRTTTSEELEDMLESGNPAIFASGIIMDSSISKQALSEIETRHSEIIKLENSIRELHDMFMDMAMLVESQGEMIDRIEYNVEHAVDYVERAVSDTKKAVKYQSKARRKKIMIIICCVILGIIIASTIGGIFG

Q: With “Munc13-1 C1-C2B-MUN-C2C domain N1128A/F1131A (from UniProt Q62768 529-1407; Q62768 1453-1735) (domain or fragment)” as the substance, how does the Ca^2+ (100 μM)-evoked fusion of the immobile, clamped vesicles, with 500 nM DHG (Syntaxin1 (rat)) read?
A: 20%

Q: Which Ca^2+ (100 μM)-evoked fusion of the immobile, clamped vesicles, with 500 nM DHG [1] does the source give for “SNAP25 linker mutant with residues 113-138 replaced by a GGGGS repeat sequence (from UniProt P60879 1-112; P60879 139-206) (natural protein)” here?
A: 20%

Q: How did the Ca^2+ (100 μM)-evoked fusion of the immobile, clamped vesicles, with 500 nM DHG (VAMP2 (mouse)) turn out when “Munc13-1 C1-C2B-MUN-C2C domain D1358K (from UniProt Q62768 529-1407; Q62768 1453-1735) (domain or fragment)” was run?
A: 20%

From doi:10.1101/2023.06.05.543781
